Series [1] has as its system IgE (Homo sapiens). Nature of the series: filter. As to conditions: 2'-OMe A,G,U; 2'-deoxy C; pool; DPBS with Ca2+ and Mg2+.
Series [2] addresses von Willebrand factor (vWF) (Homo sapiens) (UniProt P04275). Nature of the series: filter. The following applies: 2'-OMe A,G,U; 2'-deoxy C; pool; DPBS with Ca2+ and Mg2+.
Series [3] concerns the target von Willebrand factor A1 domain (Homo sapiens) (UniProt P04275). Nature of the series: filter. As to conditions: 2'-OMe A,G,U; 2'-deoxy C; pool; DPBS with Ca2+ and Mg2+.
Series [4] concerns the target T7 RNA polymerase Y639L/H784A/K378R (Bacteriophage T7) (UniProt P00573). The following applies: MNA yield, 8 mM MgCl2, 2.5 mM MnCl2.
For series [5] the target is unchanged. The following applies: 2.1 ug/ml enzyme; 2'-OMe NTPs, 8 mM MgCl2, 2.5 mM MnCl2, 37 C.
For series [6], the target named is T7 RNA polymerase P266L/Y639L/H784A/K378R (Bacteriophage T7) (UniProt P00573). The following applies: 11 ug/ml enzyme (65 at 2.6, 13 at 0.66, 8.3 at 0.16 ug/ml); 8 mM MgCl2, 2.5 mM MnCl2.

Like-named read-outs stand apart in the source and are kept apart here.

For orientation: Kd means a measure of binding affinity in units of concentration. Lower therefore signals tighter binding.

The sequence “GGGAGAATTCCGACCACAAGNNNNNNNNNNNNNNNNNNNNNNNNNNNNNNNNNNNNNNNNCATATGTGCGTCTACATGGATCCTCA [ARC4218 dCmD round 6 pool, IgE selection]” had a Kd in series [1] of 8 nM.

As for “GGGAGAATTCCGACCACAAGNNNNNNNNNNNNNNNNNNNNNNNNNNNNNNNNNNNNNNNNCATATGTGCGTCTACATGGATCCTCA [ARC4218 dCmD round 6 pool, vWF selection]”, the Kd in series [2] worked out at 2 nM; in series [3] it was 4 nM.

Consider “GGGAGAGACAAGCTTGGGTCNNNNNNNNNNNNNNNNNNNNNNNNNNNNNNNNNNNNNNNNAGAAGAGAAAGAGAAGTTAATTAAGGATCCTCAG (double strand)”, for which the activity in series [4] (dCmD yield 327 pmol) came to 404 pmol.

“GGGAGAATTCCGACCAGAAGCTTNNNNNNNNNNNNNNNNNNNNNNNNNNNNNNNNNNNNNNNNCATATGTGCGTCTACATGGATCCTCA (double strand)” came in with an activity in series [4] (dCmD yield 365 pmol) of 473 pmol.

For the sequence “TAATACGACTCACTATAGGGGAGTACAATAACGTTCTCGNNNNNNNNNNNNNNNNNNNNNNNNNNNNNNGGATCGTTACGACTAGCATCGATG (double strand) [ARC2118 transcription template]”, the figures for the activity (normalized MNA transcript yield) in series [5] and in series [6] were 100 and 130, respectively.

For the origin of these results see US20100120024.
